Laboratory results taken from the nanobody polyreactivity screen of Harvey et al. (2022).

Assay: yeast display, Sf9 membrane polyspecificity reagent, FACS + sequencing; frameworks hold sequencing errors
How it was run: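 Sorting gates, low and high (top ~1%), were placed on anti-HA fluorescence to track expression and on streptavidin fluorescence to track reagent binding. A clone's polyreactivity label is taken from the gate it came out of. The reagent was 10% biotinylated, detergent-solubilized Sf9 membrane, applied for 1 hour at 4 °C to galactose-induced yeast display cells.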

Row | Sequence | polyreactivity (PSR sort gate)
1 | QVQLVESGGGLVQAGGSLRLSCAASGRTFQTYAMGWYRQAPGKERELVAAISSDGSTYYADSVKGRFTISRDNAKNTVYLQMNSLKPEDTAVYYCNTDIGDKYYYHVRVDYEYWGQGTQVTLSS | low polyreactivity
2 | QVQLVESGGGLVQAGCSLRLSCAACGSIFGPYSMGWYRQAPAKEREFVAAISRSGTSTNYADSVKGRFTISRDNAKNTVYLQMNSLKPEDTAVYYCATAAFIVGSSRTYDYWGQGTQVTVSS | high polyreactivity
3 | QVQLVESGGGLVQSGGSLRLSCAASGGIFGINAMGWYRQAPGKEREFVAAITASGGTTYYADSVKGRFTISRDNAKNTVYLQMNRLKPEDTAVYYCAKRYRSYDYVWYEYWGQGTQVTVSS | high polyreactivity
4 | QVQLVESGGGLVQAGGSLRLSCAASGRIFYDNVMGWYRQAPGKERDLVAAISRSGGDTYYADSVKVRFTISRDNAKNTVYLQMNSLKPEDTAVYYCAADIYAFSGLYYYWGQGTQVTVSS | high polyreactivity
5 | QVQLVESGGGLVQAGGSLRLSCAASGRTFRYYAMGWYRQAPGKERELVAGISSSGRTYYADSVKGRFTISRDNAKNTVYLQMNSLKPEDTAVYYCNAVYWPVRPVDRHDYWGQGTQVTVSS | high polyreactivity
6 | QVQLVESGGGLVQAGGSLRLSCAAAGLTFQPYVLGWYRQAPGKERELVAAISVRTTRTYYADSVKGRFTISRDNAKNTVYLQMNSLKPEDTAVYYCNVSGVLYPFVSYDYWGQGTHVTVSS | low polyreactivity
7 | QVQLVESGGGLVQAGGSLRLSCAASGRTFHSYAMGWYRQAPGKERELVAAINNGGGTYYADSVKGRFTISRDNAKNTVYLQMNSLKPEDTAVYYCAADRYRYRYNAPRYAYDYWGQGTQVTVSS | high polyreactivity
8 | QVLLVESGGGLVQAGGSHRLSCAASGITIRFYAMGWYRQAPGKEREFHAAISRSGSTYYADSVKGRFTISRDNAKNTVYLHLNSVKPEDTAVYYCAADSYRSAQGLDYWGQGTQVTVSS | high polyreactivity
9 | QVQLVESGGGLVQAGGSLRLSCAASGSIFYYYAMGWYRQAPGKERELVAANDFGGGSTYYADSVKGRFTISRDNAKNTVYLQMNSLKPEDTAVYYCAARTFKDAGSAYGSWGQGTQVTVSS | high polyreactivity
10 | QVQLVESGGGLVQAGGSLRLSCASSGRIFGLYAMGWYRQAPGKERELVAAITLSGDGTDYADSVKGRFTISRDNAKNTVYLQMNSLKPEDTAVYYCAKVGQYWWNMDYWGQGTQVTVSS | low polyreactivity
11 | QVQLVESGGGLVQAGGSLRLSCAASGRTFSVNAMGWYRQAPGKERELVAAIAWDGGSTYYADSVKGRFTISRDNAKNTVYLQMNSLKPEDTAVYYCNKDLYYAYDYWGQGTQVTVSS | low polyreactivity
12 | QVQIVESGGGLVQAGGSLRLSCPASGLTFAWYAMGWYRQAPWTERELVAAINRSGGSTSYADSVKGRFTISRDNAMNTVYLQMNSLKPEDTAVYYCAAQLGYTTLGLIYWGQGTQVTVSS | low polyreactivity
13 | QVQLVESGGGLVQAGGSLRLSCAASGFTFWWYTMGWYRQAPGKERELVAAITWSGSRTYYADSVKGRFTISRDNAKNTVYLQMNSLKPEDTAVYYCAATYLKVHGEYDYWGQGTQVTVSS | high polyreactivity
14 | QVQLVESGGGLVQAGGSLRLSCAASGITIRRYAMGWYRQAPGKERELVAAITYSGGGSTYYADSVKGRFTISRDNAKNTVYLQMNSLKPEDTAVYYCAAGWYPWGYYSGYISYEYWGQGTQVTVSS | high polyreactivity
15 | QVQLVESGGGLVQAGGSLRLSCAASGFIFSYYAMGWYIQEPGKERELVAAITVTGGNTYYADSVKGRFTISRDNAKNTVYLQMNSLIPEDTAVYYCAAVVRGPGVSVYYWGLGTQVTVSS | low polyreactivity
16 | QVQLVESGGGLVQAGGSLRLSCAASGRIFRYNAMGWYRQAPGKERELVAAITKGGGSTYYADSVKGRFTISRDNAKNTVYLQMTSLNPEDTGVYYCAARRAVYRGNYWGQGTKVTVSS | high polyreactivity
17 | QVQLVESGGGLVQAGGILRLSCAASGFTFGLYAMGWYRQAPGTERELVAAIRNNGGSTYYADSVKGRFTISRDNAKNTVYLQMNSLKPDDTAVYYCAKKSFFTGRWWYDYWGQGTQVSVSS | high polyreactivity
18 | QVQLVESGGGLVQAAGSLRLSCAASGRTFKYNAMGWYRQAPGKERELVAAITRSGTTYYADSVKGRFTISRDNAKNTVYLQMNSLKPEDTAVYYCNARIVNYGSYYYWGQGTQVTVSS | high polyreactivity
19 | QVQLVESGGGLVQAAGSLRLSCAASGYTFGYYAMGWYRQAPGKERELVAAINWSGGSTYYADSVKGRFTISRDNEKNSVYLQMYSLKPEDTAVYYCAAQSRSPGYYYWGQGTQVTVSS | high polyreactivity
20 | QVQLVESGGGLVQAGGSLRLSCAASGRIDAYYAMGWYRQAPGKERELVAGISQRGSRTYYADSVKGRFTISRDNAKNTVYLQMNSLKPEDTAVYYCAARDRRSVTMDYWGQGTQVTVSS | high polyreactivity
21 | QVQLVESGGGLVQAGGSLRLSCAASGIIFTWYAMGWYRQAPGKERELVAAITSGNTYYADSVKGRFTISRDNAKNTVYLQMNSLKPEDTAVYYCNAVYSYTDEYDYWGQGTQVTVSS | high polyreactivity
22 | QVLLVEAGGGLVQAGGSLRLSCAASGRIFRRYAMGWYRQAPGKERELVAAISSGGGSTYYADSVKGRFTISRDNAKNTVYLQMNSLKPEDTAVYYCNTDFYYDDVSQAHDYWGQGTQVTVSS | high polyreactivity

Row | Sequence | polyreactivity (PSR sort gate)
23 | QVQLVESGGGLVQAGGSLRLSCAASGRTFRTNAMGWYRQAAGKERELVAAIRASTGSTYYADSVKGRFTMSRDNAKNTVYLQMNSLKPEDTAVYYCAARLRRGLTATWYYYWGQGTQVTVSS | high polyreactivity
24 | QVQLVESGGGLVQAGGSLRLSCAASGITFWYYAMGWYRQAPGKERELVAAITGGDSTNYADSVKGRFTISRDNAKNTVYLQMNSLKPEDTAVYYCNAEGSYEGYDDYWGHGTQVTVSS | high polyreactivity
25 | QVQLVESGGGLVQAGGSLRLSCAASGNTFDYYAMGWYRQAPGKERELVAAITRGGSTNYADSVKGRFTISRDNAKNTVYLQMNSLKPEDTAGYYCAAEQRAPRFADYDYWGQGTQVTVSS | low polyreactivity
26 | QVQLVESGGGLVQAGGSLRLSCAASGRIFVIYAMGWNRQAPGKERELVASITDGTITNYADSVKGRFTISRDNAKNTVYLQMNSLKPEDTAVYYCAAGTQAHAYVVRPIEMDYWGQGTQVTVSS | low polyreactivity
27 | QVQLVESGGGLVQAGGSLRLSCAASGRTFLLNAMGWYRQAPGKERELVAAITRSGVITYYADSVKGRFTISRDIAKNTVYFQMNSLKPEDTAVFYCAAQLRYSYLRPSYYYWGQGTQVTVSS | high polyreactivity
28 | QVQLVETGGGLVQAGGSLRLSCAASGSIFPSYAMGWYRPAPAKERELVAAISRSAGSTYYADSVKGRFTISRDNSKNTVYLQMNSLKPEDTAVYYCADDGYSSRYRYDYWGQGTQVTVSS | low polyreactivity
29 | QVQLVESGGGLVQAGGSLRLSCAASGSIIVRYAMGWYRQAPGKERELVAAITSRGGSTYYAVSVKGRFTISRDNAKNTVYLQMNSLKPEDTAVYYCAAYGDQRSTPAIDKYGGQGTQVTVSS | low polyreactivity
30 | QVHLVESGGGLVQAGGSLRLSCHASGIIFKTYAMGWYRQPPGKERELVAAISSGGTTYYADSVKGRFTISRDNAKNTVYLQMNSLKPEDTAVYYCAARGYRSGGGYNYWGQGTQVTVSS | high polyreactivity
31 | QVQLVESGGGLVQAGGSLRLSCAASGRIFDWYAMGWYRQAPGKERELVATISWSGGSTYYADSVKGRFTISRDNAKNTVYLQMNSLKPEDTAVYYCAADDYWRLYTWKFDYWGQGTQVTVSS | high polyreactivity
32 | QVQLVESGGGLVQAGGSLRLSCAASGSIFRYYTMGWYRQAPGKERELVASISRGGNTYYADSVKGRFTISRDNAKNTVYLQMNSLKPEDTAVYYCNVRLSYSYISQSDWNFDYWGQGTQVTVSS | low polyreactivity
33 | QVQLVESGGGLVQTGGSLRLSCAASGSIFGEYAMGWYRQAPGKEREFVADITWSDGSTYYADSVKGRFTISRDNAKNTVYLQMNSLKPEDTAVYYCAADSVLDRPVLYLWPWYLGDYWGQGTQVTVSS | low polyreactivity
34 | QVQLVVSGGGLVQAGGSLRLSWAASGSIFERYAMGLYRQAPGKERELVARISRSGTSTYYADSVKGRFTISRDNAKNSVYDQMNSLQPEDTAVYYCNATGSRYSGYQRCHYWRYDYLGQGTQVTVSS | high polyreactivity
35 | QVHLVESGGGLVQAGGSLRLSFAASGSTFYVNAMGWYRQAPGKERELVAAIRYSGGRTYYADSVKGRFTISRDNAKNNVYLQLNRLKPEDTAVYFCAATTYYGGLYTREFDYWGQGTQVTVSS | low polyreactivity
36 | QVQLVESGGGLVQAGGSLRLSCAASGRIFAVYAMGWYRQAPGKERELVAAISWSGGRTYYADSVKGRFTISRDNAKNTVYLQMNSLKPEDTAVYYCNRTPTGSYLYGMDYWGQGTQVTVSS | high polyreactivity
37 | QVQLVESGGGLVQAGGSLRLSCAASGITFFRYAMGWYRQAPGKERELVAAITTSGSSTFYADSVKGRFTISRDNAKNTVYLLMNSLKPEDTAVYYCAAVFRWARLYEYDYWGQGTQVTVSS | high polyreactivity
38 | QVQLVESGGGLVLAGGSLRLSCAASGRIFGTNAMGWYRQAPGKERELVAAISLSGGRTYADSVKGRFTISRDNAKNTVYLQMNSLKPEDTAVYYCNADSAGITRSRSELDYWGQGTQVTVSS | low polyreactivity
39 | QVQLVESGGGLVQAGGSLRLSCAASGSIFARYAMGWYRQAPGKERELVAAISRNGGSTYYADSVKGRFTISRDNAKNTVYLQMNSLKPEDTAVYYCAATQVGHYRIYDYWGQGTQVTVSS | low polyreactivity
40 | QVHLVESGGGLVQAGGSLRLSCAASGSIFDVNAMGWYRQSPGKERELVASIDNSGTTNYADSVKGRFTISRDNAKNTVYLLMNSLKPEDTAVYYGAAEYESGDYWGQGTQVTVSS | low polyreactivity
41 | QVQLVESGGGLVQAGGSLRLSCAASGFIFRYYTMGWYRQAPGKERELVAAISSGTSTHYADSVKGRYTISRNNAKNTVNLQMNSLKPEDTAVYYCAADLPYWYNRKPIFPYYYWGQGTQVTVSS | high polyreactivity
42 | QVQLVESGGGLVQAGGSLRLSCAASGSTFVIYAMGWYIQAPGKERELVAAINSGVSTYADSVKGRFTISRDNAKNTVYLQMNSLKPEDTAVYYCNAVSRPPYGPVFSAPAGGSWGQGTQVTVSS | low polyreactivity
43 | QVQLVESGGGLVQAGGSLRLSCAASGGIFERNDMGWYRQAPGKERELVAGISSVGSTNYADSVKGRFTISRDNAKNTVYLQMNSLKPEDTAVYYCAAPTKREFRYLRYDYWGQGTQVTVSS | low polyreactivity
